Measurements: US20200115416A1 (REGENTS OF THE UNIVERSITY OF MINNESOTA, published 2020)
Read-outs that look alike come from different tables or passages of the source. Square brackets hold non-standard residues; d marks the D form. hPhe = N[C@@H](CCc1ccccc1)C(=O)O; Nle = CCCC[C@H](N)C(=O)O; Dap = NC[C@H](N)C(=O)O

Assays:
Experiment in all cases: cell-based or functional assay
[1] = target: T1, mouse melanocortin-3 receptor (mouse, UniProt P33033 1-323)
[2] = target: T2, mouse melanocortin-4 receptor (mouse, UniProt P56450 1-332)
[3] = target: T3, mouse melanocortin-1 receptor (mouse, UniProt Q01727 1-315)
[4] = target: T4, mouse melanocortin-5 receptor (mouse, UniProt P41149 1-325)
[5] = target: T1, mouse melanocortin-3 receptor; remark: listed apart in the source
[6] = target: T3, mouse melanocortin-1 receptor; remark: listed apart in the source
[7] = target: T2, mouse melanocortin-4 receptor; remark: listed apart in the source
[8] = target: T4, mouse melanocortin-5 receptor; remark: listed apart in the source

T3 sequence (Q01727 whole entry): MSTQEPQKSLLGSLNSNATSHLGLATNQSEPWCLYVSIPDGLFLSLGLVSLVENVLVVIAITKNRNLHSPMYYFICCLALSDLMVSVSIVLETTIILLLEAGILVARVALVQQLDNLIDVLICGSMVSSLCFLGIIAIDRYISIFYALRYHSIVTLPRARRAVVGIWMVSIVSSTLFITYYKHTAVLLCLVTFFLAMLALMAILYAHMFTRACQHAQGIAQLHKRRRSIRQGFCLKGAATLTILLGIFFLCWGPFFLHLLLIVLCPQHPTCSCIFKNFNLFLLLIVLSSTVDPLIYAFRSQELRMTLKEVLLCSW
T1 sequence (P33033 whole entry): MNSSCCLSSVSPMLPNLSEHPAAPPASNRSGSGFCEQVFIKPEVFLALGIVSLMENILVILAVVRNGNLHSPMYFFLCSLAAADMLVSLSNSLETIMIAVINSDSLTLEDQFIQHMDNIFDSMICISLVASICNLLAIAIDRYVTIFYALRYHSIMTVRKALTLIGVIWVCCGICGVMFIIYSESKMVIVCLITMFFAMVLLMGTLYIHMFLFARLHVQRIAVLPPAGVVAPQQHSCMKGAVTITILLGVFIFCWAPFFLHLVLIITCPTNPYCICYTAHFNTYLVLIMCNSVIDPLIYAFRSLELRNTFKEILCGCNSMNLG
T4 sequence (P41149 whole entry): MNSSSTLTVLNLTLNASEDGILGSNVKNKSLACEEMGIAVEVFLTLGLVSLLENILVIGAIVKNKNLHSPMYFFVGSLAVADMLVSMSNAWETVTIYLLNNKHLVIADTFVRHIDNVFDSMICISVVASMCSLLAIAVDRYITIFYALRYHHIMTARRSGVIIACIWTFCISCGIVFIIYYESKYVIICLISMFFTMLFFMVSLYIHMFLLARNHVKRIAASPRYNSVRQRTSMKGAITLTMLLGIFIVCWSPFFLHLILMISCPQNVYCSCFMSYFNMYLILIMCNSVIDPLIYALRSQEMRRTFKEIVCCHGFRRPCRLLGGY
T2 sequence (P56450 whole entry): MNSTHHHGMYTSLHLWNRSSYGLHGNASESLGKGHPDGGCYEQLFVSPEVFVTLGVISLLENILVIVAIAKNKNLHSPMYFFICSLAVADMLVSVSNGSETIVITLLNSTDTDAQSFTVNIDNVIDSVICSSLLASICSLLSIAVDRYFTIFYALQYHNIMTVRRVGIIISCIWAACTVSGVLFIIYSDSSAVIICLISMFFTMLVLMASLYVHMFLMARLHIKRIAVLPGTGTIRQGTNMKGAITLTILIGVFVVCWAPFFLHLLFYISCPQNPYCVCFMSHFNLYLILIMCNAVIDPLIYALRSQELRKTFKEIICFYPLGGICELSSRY

Row | Binder | antagonist pA2 (Schild, agonist NDP-MSH) [1] | antagonist pA2 (Schild, agonist NDP-MSH) [2] | agonist EC50 (cAMP AlphaScreen) [3] [µM] | EC50 (cAMP AlphaScreen, inverse agonist) [4] [µM] | other results
1 | cyclo(PRFF[Dap]S[Nle][dP]) (SMILES CCCC[C@@H]1NC(=O)[C@H](CO)NC(=O)[C@H](CN)NC(=O)[C@H](Cc2ccccc2)NC(=O)[C@H](Cc2ccccc2)NC(=O)[C@H](CCCNC(=N)N)NC(=O)[C@@H]2CCCN2C(=O)[C@H]2CCCN2C1=O) [c[Pro-Arg-Phe-Phe-Dap-Ser-Nle-DPro]] | 6.5 | 9.1 | > 100 | > 100 | 
2 | cyclo(PRFFRAF[dP]) [c[Pro-Arg-Phe-Phe-Arg-Ala-Phe-DPro]] | 7.4 | 8.7 | 0.6 | > 100 | partial agonist, % receptor stimulation [3]: 25%
3 | cyclo(PRF[hPhe]RSF[dP]) (SMILES N=C(N)NCCC[C@@H]1NC(=O)[C@H](CCc2ccccc2)NC(=O)[C@H](Cc2ccccc2)NC(=O)[C@H](CCCNC(=N)N)NC(=O)[C@@H]2CCCN2C(=O)[C@H]2CCCN2C(=O)[C@H](Cc2ccccc2)NC(=O)[C@H](CO)NC1=O) [c[Pro-Arg-Phe-hPhe-Arg-Ser-Phe-DPro]] | 7.7 | 8.8 |  | > 100 | % receptor stimulation at 100 µM (cAMP AlphaScreen) [3]: 30%
4 | cyclo(PRF[hPhe]RS[Nle][dP]) (SMILES CCCC[C@@H]1NC(=O)[C@H](CO)NC(=O)[C@H](CCCNC(=N)N)NC(=O)[C@H](CCc2ccccc2)NC(=O)[C@H](Cc2ccccc2)NC(=O)[C@H](CCCNC(=N)N)NC(=O)[C@@H]2CCCN2C(=O)[C@H]2CCCN2C1=O) [c[Pro-Arg-Phe-hPhe-Arg-Ser-Nle-DPro]] | 7.9 | 9.5 | 0.4 | > 100 | 
5 | cyclo(PRF[hPhe][Dap]SF[dP]) (SMILES N=C(N)NCCC[C@@H]1NC(=O)[C@@H]2CCCN2C(=O)[C@H]2CCCN2C(=O)[C@H](Cc2ccccc2)NC(=O)[C@H](CO)NC(=O)[C@H](CN)NC(=O)[C@H](CCc2ccccc2)NC(=O)[C@H](Cc2ccccc2)NC1=O) [c[Pro-Arg-Phe-hPhe-Dap-Ser-Phe-DPro]] | 7.2 | 9.2 |  | > 100 | % receptor stimulation at 100 µM (cAMP AlphaScreen) [3]: 40%
6 | cyclo(PRFFRS[Nle][dP]) (SMILES CCCC[C@@H]1NC(=O)[C@H](CO)NC(=O)[C@H](CCCNC(=N)N)NC(=O)[C@H](Cc2ccccc2)NC(=O)[C@H](Cc2ccccc2)NC(=O)[C@H](CCCNC(=N)N)NC(=O)[C@@H]2CCCN2C(=O)[C@H]2CCCN2C1=O) [c[Pro-Arg-Phe-Phe-Arg-Ser-Nle-DPro]] | 7.1 | 9.6 | > 100 | > 100 | 
7 | cyclo(PRFFRA[Nle][dP]) (SMILES CCCC[C@@H]1NC(=O)[C@H](C)NC(=O)[C@H](CCCNC(=N)N)NC(=O)[C@H](Cc2ccccc2)NC(=O)[C@H](Cc2ccccc2)NC(=O)[C@H](CCCNC(=N)N)NC(=O)[C@@H]2CCCN2C(=O)[C@H]2CCCN2C1=O) [c[Pro-Arg-Phe-Phe-Arg-Ala-Nle-DPro]] | 7.5 | 9.1 | > 100 | > 100 | 
8 | cyclo(PRF[hPhe]RA[Nle][dP]) (SMILES CCCC[C@@H]1NC(=O)[C@H](C)NC(=O)[C@H](CCCNC(=N)N)NC(=O)[C@H](CCc2ccccc2)NC(=O)[C@H](Cc2ccccc2)NC(=O)[C@H](CCCNC(=N)N)NC(=O)[C@@H]2CCCN2C(=O)[C@H]2CCCN2C1=O) [c[Pro-Arg-Phe-hPhe-Arg-Ala-Nle-DPro]] | 7.5 | 8.8 | > 100 | > 100 | 
9 | cyclo(PRF[hPhe][Dap]A[Nle][dP]) (SMILES CCCC[C@@H]1NC(=O)[C@H](C)NC(=O)[C@H](CN)NC(=O)[C@H](CCc2ccccc2)NC(=O)[C@H](Cc2ccccc2)NC(=O)[C@H](CCCNC(=N)N)NC(=O)[C@@H]2CCCN2C(=O)[C@H]2CCCN2C1=O) [c[Pro-Arg-Phe-hPhe-Dap-Ala-Nle-DPro]] | 6.7 | 9.1 | > 100 | > 100 | 
10 | cyclo(PRF[hPhe][Dap]S[Nle][dP]) (SMILES CCCC[C@@H]1NC(=O)[C@H](CO)NC(=O)[C@H](CN)NC(=O)[C@H](CCc2ccccc2)NC(=O)[C@H](Cc2ccccc2)NC(=O)[C@H](CCCNC(=N)N)NC(=O)[C@@H]2CCCN2C(=O)[C@H]2CCCN2C1=O) [c[Pro-Arg-Phe-hPhe-Dap-Ser-Nle-DPro]] | 6.7 | 9.5 | > 100 | > 100 | 
11 | cyclo(PRF[hPhe]NSF[dP]) (SMILES N=C(N)NCCC[C@@H]1NC(=O)[C@@H]2CCCN2C(=O)[C@H]2CCCN2C(=O)[C@H](Cc2ccccc2)NC(=O)[C@H](CO)NC(=O)[C@H](CC(N)=O)NC(=O)[C@H](CCc2ccccc2)NC(=O)[C@H](Cc2ccccc2)NC1=O) [c[Pro-Arg-Phe-hPhe-Asn-Ser-Phe-DPro]] | 6.5 | 8.6 |  | > 100 | % receptor stimulation at 100 µM (cAMP AlphaScreen) [3]: 40%
12 | cyclo(PRFFRSF[dP]) (SMILES N=C(N)NCCC[C@@H]1NC(=O)[C@H](Cc2ccccc2)NC(=O)[C@H](Cc2ccccc2)NC(=O)[C@H](CCCNC(=N)N)NC(=O)[C@@H]2CCCN2C(=O)[C@H]2CCCN2C(=O)[C@H](Cc2ccccc2)NC(=O)[C@H](CO)NC1=O) [c[Pro-Arg-Phe-Phe-Arg-Ser-Phe-DPro]] | 7.1 | 9 | > 100 | > 100 | 
13 | cyclo(PRF[hPhe]NS[Nle][dP]) (SMILES CCCC[C@@H]1NC(=O)[C@H](CO)NC(=O)[C@H](CC(N)=O)NC(=O)[C@H](CCc2ccccc2)NC(=O)[C@H](Cc2ccccc2)NC(=O)[C@H](CCCNC(=N)N)NC(=O)[C@@H]2CCCN2C(=O)[C@H]2CCCN2C1=O) [c[Pro-Arg-Phe-hPhe-Asn-Ser-Nle-DPro]] | 6.3 | 9.2 | > 100 | > 100 | 
14 | cyclo(PRFF[Dap]SF[dP]) (SMILES N=C(N)NCCC[C@@H]1NC(=O)[C@@H]2CCCN2C(=O)[C@H]2CCCN2C(=O)[C@H](Cc2ccccc2)NC(=O)[C@H](CO)NC(=O)[C@H](CN)NC(=O)[C@H](Cc2ccccc2)NC(=O)[C@H](Cc2ccccc2)NC1=O) [c[Pro-Arg-Phe-Phe-Dap-Ser-Phe-DPro]] | 6.8 | 9.1 | 0.6 | > 100 | partial agonist, % receptor stimulation [3]: 85%
15 | cyclo(PRF[hPhe]RAF[dP]) (SMILES C[C@@H]1NC(=O)[C@H](CCCNC(=N)N)NC(=O)[C@H](CCc2ccccc2)NC(=O)[C@H](Cc2ccccc2)NC(=O)[C@H](CCCNC(=N)N)NC(=O)[C@@H]2CCCN2C(=O)[C@H]2CCCN2C(=O)[C@H](Cc2ccccc2)NC1=O) [c[Pro-Arg-Phe-hPhe-Arg-Ala-Phe-DPro]] | 8 | 8.9 |  | > 100 | % receptor stimulation at 100 µM (cAMP AlphaScreen) [3]: 25%
16 | cyclo(PRFFNSF[dP]) (SMILES N=C(N)NCCC[C@@H]1NC(=O)[C@@H]2CCCN2C(=O)[C@H]2CCCN2C(=O)[C@H](Cc2ccccc2)NC(=O)[C@H](CO)NC(=O)[C@H](CC(N)=O)NC(=O)[C@H](Cc2ccccc2)NC(=O)[C@H](Cc2ccccc2)NC1=O) [c[Pro-Arg-Phe-Phe-Asn-Ser-Phe-DPro]] | 6.1 | 8.1 | 1.2 |  | agonist EC50 (cAMP AlphaScreen) [5]: > 100 µM; antagonist pA2 (Schild, agonist NDP-MSH) [5]: 6.2; agonist EC50 (cAMP AlphaScreen) [6]: > 100 µM; agonist EC50 (cAMP AlphaScreen) [7]: > 100 µM; antagonist pA2 (Schild, agonist NDP-MSH) [7]: 8.2; inverse agonist, % change from basal cAMP at 100 µM [8]: -30%; inverse agonist efficacy, % relative to basal [4]: -14%
